# Reference: patent US20240158472A1, “FERRITIN VARIANTS WITH INCREASED STABILITY AND COMPLEXATION ABILITY” (Cellis AG, priority 2021, published 2024)
# B1: Q11E-Q15E mutant: Examples 3-8 ferritin variant based on Q11E-Q15E with added K54E, K72E, K87Q, K144E, C91S and C103S (protein, UniProt P02794 1-183, looked up, variant Q11E Q15E K54E K72E K87Q K144E C91S C103S)
# Ferritin heavy chain: MTTASTSQVRENYHEDSEAAINRQINLELYASYVYLSMSYYFDRDDVALKNFAEYFLHQSHEEREHAEKLMELQNQRGGRIFLQDIQKPDSDDWESGLNAMESALHLEKNVNQSLLELHKLATDKNDPHLCDFIETHYLNEQVEAIKELGDHVTNLRKMGAPESGLAEYLFDKHTLGDSDNES
# modifications: doxorubicin-loaded form also
# Key:
# [1] = Native PAGE gel after doxorubicin encapsulation and purification; format: physicochemical; details: after doxorubicin encapsulation; mutants carry added K54E, K72E, K87Q, K144E, C91S, C103S
# Source text: Native PAGE gel has been performed in order to check the size of the protein after encapsulation and purification.
# [2] = system: MDA-MB 231, Skov3 and 4T1; assay: Tumour cell viability after 72 h co-culture with macrophages carrying doxorubicin packed ferritin; format: cell-based; details: ferritin cages filled with doxorubicin 1 mg/ml
# Description: FIG. 7: Graphs of tumour cell viability after 72 h co-culture with macrophages. The concentration of ferritin cages filled with doxorubicin was the same for each variant of ferritin and was equal to 1 mg/ml.
# The doxorubicin packed proteins were inserted into macrophages and then co-cultured with breast and ovarian cancer cell lines: MDA-MB 231, Skov3 and 4T1. The number of viable cells after co-culture was the lowest for the Q11E-Q15E mutant (FIG. 7).
# [3] = Native gel after storage in freezer (-80 degrees Celsius) and thawing; format: physicochemical; details: ferritin cages with doxorubicin, mutants of b203
molecule,measurement,setting,value
B1,forms on native gel (aggregates versus 24-mers),[1],present as 24-mers (homogeneous cages)
same,number of viable cells after co-culture,[2],lowest
same,aggregation of cages after storage,[3],still present as 24-mers (homogeneous cages) after storage
